According to US20160376339A1 (CURACLE, published 2016):
Values belong to the binder of their own block, whether it stands above or below them. Where no end group is shown, it is not given here.

Key:
Flag-PDK1 [1] = molecular target: T1, Flag-PDK1 (UniProt O15530 1-556, limits assumed); experiment: co-immunoprecipitation of GFP-tagged truncated AMIGO2 with Flag-PDK1
T1 construct: Expressed in HEK293T cells for co-immunoprecipitation; not shown: Flag tag
T1 sequence (looked up): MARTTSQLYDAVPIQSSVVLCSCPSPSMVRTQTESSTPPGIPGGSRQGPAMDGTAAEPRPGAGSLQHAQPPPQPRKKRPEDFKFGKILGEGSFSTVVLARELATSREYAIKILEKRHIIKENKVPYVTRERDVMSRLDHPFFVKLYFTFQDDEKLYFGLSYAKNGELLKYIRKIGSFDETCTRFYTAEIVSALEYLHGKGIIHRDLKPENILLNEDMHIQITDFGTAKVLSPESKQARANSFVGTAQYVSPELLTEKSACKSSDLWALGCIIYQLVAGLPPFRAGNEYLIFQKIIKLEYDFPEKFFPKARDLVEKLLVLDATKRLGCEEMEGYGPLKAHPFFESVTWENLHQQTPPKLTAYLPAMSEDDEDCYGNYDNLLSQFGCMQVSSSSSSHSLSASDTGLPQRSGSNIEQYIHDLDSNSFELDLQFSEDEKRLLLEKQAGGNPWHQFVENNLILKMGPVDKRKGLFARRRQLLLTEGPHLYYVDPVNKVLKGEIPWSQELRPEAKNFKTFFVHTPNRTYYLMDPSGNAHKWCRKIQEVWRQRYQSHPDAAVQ

[2] = molecular target: T2, His-tagged PH domain of PDK1 (purified) (UniProt O15530 409-556, limits assumed); experiment: Far-western analysis and GST pull-down with purified proteins
T2 construct: domain: PH domain; Expressed in E. coli BL21 and purified on Ni2+-NTA-agarose; also called His-PH; His-tagged PDK1PH; not shown: His tag from vector pET32a
T2 sequence (looked up): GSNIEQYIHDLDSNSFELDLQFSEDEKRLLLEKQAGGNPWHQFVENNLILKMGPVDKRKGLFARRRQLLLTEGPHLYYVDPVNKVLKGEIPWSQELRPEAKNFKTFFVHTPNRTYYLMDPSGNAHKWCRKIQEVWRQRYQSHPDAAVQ

Flag-PDK1 [3] = molecular target: T1, Flag-PDK1; experiment: co-immunoprecipitation of GFP-tagged deletion mutants with Flag-PDK1

B1: AMIGO2^457aa (GFP-tagged AMIGO2 truncated after residue 457) (receptor)
chain: VCPTACICATDIVSCTNKNLSKVPGNLFRLIKRLDLSYNRIGLLDSEWIPVSFAKLNTLILRHNNITSISTGSFSTTPNLKCLDLSSNKLKTVKNAVFQELKVLEVLLLYNNHISYLDPSAFGGLSQLQKLYLSGNFLTQFPMDLYVGRFKLAELMFLDVSYNRIPSMPMHHINLVPGKQLRGIYLHGNPFVCDCSLYSLLVFWYRRHFSSVMDFKNDYTCRLWSDSRHSRQVLLLQDSFMNCSDSIINGSFRALGFIHEAQVGERLMVHCDSKTGNANTDFIWVGPDNRLLEPDKEMENFYVFHNGSLVIESPRFEDAGVYSCIAMNKQRLLNETVDVTINVSNFTVSRSHAHEAFNTAFTTLAACVASIVLVLLYLYLTPCPCKCKTKRQKNMLHQSNAHSSILSPGPASDASADE
notes: The range 1-457 is read from the name and from the reverse primer with its stop codon; also called 457aa construct; not shown: EGFP tag
binding result (Flag-PDK1 [1]): no binding

B2: GST-tagged AMIGO2 420-454 (other)
chain: TPCPCKCKTKRQKNMLHQSNAHSSILSPGPASDAS
modifications: cysteine pairing not given here; also: GST tag of pGEX 4T1 (sequence not given here)
notes: Same forward primer and linker as GST-CD; not shown: glutathione S-transferase tag of vector pGEX 4T1
binding result [2]: no binding

The remaining lines, values ahead:

binding result (Flag-PDK1 [3]): no binding
B3: AMIGO2^ΔCD (GFP-tagged AMIGO2 with residues 420-522 deleted) (receptor)
chain: VCPTACICATDIVSCTNKNLSKVPGNLFRLIKRLDLSYNRIGLLDSEWIPVSFAKLNTLILRHNNITSISTGSFSTTPNLKCLDLSSNKLKTVKNAVFQELKVLEVLLLYNNHISYLDPSAFGGLSQLQKLYLSGNFLTQFPMDLYVGRFKLAELMFLDVSYNRIPSMPMHHINLVPGKQLRGIYLHGNPFVCDCSLYSLLVFWYRRHFSSVMDFKNDYTCRLWSDSRHSRQVLLLQDSFMNCSDSIINGSFRALGFIHEAQVGERLMVHCDSKTGNANTDFIWVGPDNRLLEPDKEMENFYVFHNGSLVIESPRFEDAGVYSCIAMNKQRLLNETVDVTINVSNFTVSRSHAHEAFNTAFTTLAACVASIVLVLLYLYL
notes: The range 1-419 is derived from it; also called AMIGO2 without cytosolic Domain; not shown: EGFP tag

binding result [2]: no binding
B4: GST-tagged AMIGO2 420-464 (other)
chain: TPCPCKCKTKRQKNMLHQSNAHSSILSPGPASDASADERKAGAGK
modifications: cysteine pairing not given here; also: GST tag of pGEX 4T1 (sequence not given here)
notes: as for B2
